Positions count from the first letter of the chain named. Values joined by “and” are separate entries in the source; they are usually repeats but may differ in a detail not shown here. Equal values may be shown once.
Assays:
human UCN2 peptide [1] = target: T1, human UCN2 peptide (human, UniProt Q96RP3 72-109, limits assumed, not fully specified; biotin at N- or C-terminus in the ELISA); test: ELISA, biotinylated hUCN2 on streptavidin plates
T1 construct: also called hUCN2; hUCN2 (NT Biotin)
T1 peptide (looked up): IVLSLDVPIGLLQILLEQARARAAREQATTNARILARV
Experimental: (§1) Streptavidin (Thermo, Cat: 21125) was diluted in PBS with a concentration of 2 μg/mL. 100 μL of diluted streptavidin was added per well to ELISA microplates, and the plates were incubated overnight at 4° C. Plates were blocked with ELISA blocking solution (containing 2% w/v BSA, 0.05% (v/v) Tween-20, pH 7.4 PBS buffer) at 37° C. for 1 hour, and then incubated with either 1 μg/mL hUCN1 (NT Biotin), hUCN1 (CT Biotin), hUCN2 (NT Biotin), hUCN2 (CT Biotin), hUCN3 (NT Biotin), or hUCN3 (CT Biotin) for 1 hour at 37° C. […] 100 μl of TMB Substrate (Biopanda, Cat: TMB-S-003) was added, and the plates were incubated at room temperature for 15 minutes. 100 μL of ELISA stopping solution (Solarbio, Cat #: C1058) was then added to terminate the reaction, and the OD450 nm was determined by an ELISA plate reader (Molecular Devices, Spectra max 384 plus).

human UCN3 peptide [2] = target: T2, human UCN3 peptide (human, UniProt Q969E3 120-157, not fully specified; biotin at N- or C-terminus in the ELISA); test: ELISA, biotinylated hUCN3 on streptavidin plates
T2 construct: also called hUCN3; hUCN3 (NT Biotin)
T2 peptide (looked up): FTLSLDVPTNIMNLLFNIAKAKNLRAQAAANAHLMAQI
Experimental: as §1

human UCN1 peptide = target: T3, human UCN1 peptide (human, UniProt P55089 83-122, not fully specified; biotin at N- or C-terminus in the ELISA); test: cell-based or functional assay
T3 peptide (looked up): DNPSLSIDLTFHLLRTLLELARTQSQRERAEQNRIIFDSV

biotinylated CRH [3] = target: T4, biotinylated CRH (human and mouse, not fully specified; biotinylated, position not stated); test: Octet BLI, biotinylated CRH on SA sensor
T4 construct: also called Biotin-CRH; biotin-labeled CRH
T4 peptide: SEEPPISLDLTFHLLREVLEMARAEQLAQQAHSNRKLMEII

biotinylated CRH [4] = target: T4, biotinylated CRH; test: competitive ELISA, coated 1st mAb; competitor PR301777
Experimental: (§2) For epitope binding, a competitive ELISA was performed. Specifically, 1 μg/ml of capture antibody, 100 μl/well, was coated on a 96 well-plate at 4° C. overnight. Plates were blocked with ELISA blocking solution (containing 2% w/v BSA, 0.05% (v/v) Tween-20, pH 7.4 PBS buffer) at 37° C. for 1 hour. […] Subsequently, plates were washed and incubated with Streptavidin-Peroxidase (SIGMA, Cat: 52438-250UG) at 37° C. for 1 hour. 100 μL of 3,3′,5,5′-tetramethylbenzidine (TMB) substrate (Biopanda, Cat: TMB-S-003) was added, and the plates were incubated at room temperature for 15 minutes. 100 μL of ELISA stopping solution (Solarbio, Cat #: C1058) was added to terminate the reaction, and the optical density at 450 nm (OD450 nm) was determined by an ELISA plate reader (Molecular Devices, Spectra max 384 plus).

biotinylated CRH [5] = target: T4, biotinylated CRH; test: competitive ELISA, coated 1st mAb; competitor PR302064
Experimental: as §2

biotinylated CRH [6] = target: T4, biotinylated CRH; test: competitive ELISA, coated 1st mAb; competitor PR006152
Experimental: as §2

biotinylated CRH [7] = target: T4, biotinylated CRH; test: competitive ELISA, coated 1st mAb; competitor PR302069
Experimental: as §2

biotinylated CRH [8] = target: T4, biotinylated CRH; test: competitive ELISA, coated 1st mAb; competitor hIgG1
Experimental: as §2

biotinylated CRH [9] = target: T4, biotinylated CRH; test: competitive ELISA, coated 1st mAb; competitor PR302055
Experimental: as §2

biotinylated CRH [10] = target: T4, biotinylated CRH; test: competitive ELISA, coated 1st mAb; competitor PR302050
Experimental: as §2

biotinylated CRH [11] = target: T4, biotinylated CRH; test: competitive ELISA, coated 1st mAb; competitor PR006148
Experimental: as §2

biotinylated CRH [12] = target: T4, biotinylated CRH; test: competitive ELISA, coated 1st mAb; competitor PR005660
Experimental: as §2

biotinylated CRH [13] = target: T4, biotinylated CRH; test: competitive ELISA, coated 1st mAb; competitor PR004290
Experimental: as §2

human UCN3 peptide [14] = target: T2, human UCN3 peptide; test: ELISA on streptavidin-captured hUCN3 (NT biotin) and hUCN3 (CT biotin), mAb at 100 nM and 10 nM; axis labelled RLU, scale 0-4
Experimental: as §1

hUCN1 (NT Biotin) = target: T5, hUCN1 (NT Biotin) (human, UniProt P55089 83-122, biotin at the N-terminus); test: ELISA, biotin peptide on streptavidin plate
T5 construct: also called human UCN1 (NT biotin)
T5 peptide (looked up): T3 peptide (looked up)
Procedure, shortened: (§3)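 Plates were coated overnight at 4° C with streptavidin at 2 μg/ml in PBS to capture the biotinylated peptide. After binding steps, TMB substrate was developed for 15 minutes at room temperature, the reaction was stopped, and OD450 nm was read.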

CRH (CT Biotin) = target: T6, CRH (CT Biotin) (human and mouse, C-terminal K-Biotin); test: ELISA, biotin peptide on streptavidin plate
T6 construct: also called Peptide 4 (CRH-Biotin)
T6 peptide: T4 peptide
Procedure, shortened: as §3

hUCN1 (CT Biotin) = target: T7, hUCN1 (CT Biotin) (human, UniProt P55089 83-122, biotin at the C-terminus); test: ELISA, biotin peptide on streptavidin plate
T7 construct: also called human UCN1 (CT biotin)
T7 peptide (looked up): T3 peptide (looked up)
Procedure, shortened: as §3

CRH (NT Biotin) = target: T8, CRH (NT Biotin) (human and mouse, not fully specified; biotin at the N-terminus); test: ELISA, biotin peptide on streptavidin plate
T8 peptide: T4 peptide
Procedure, shortened: as §3

N-Terminal CRH = target: T9, N-Terminal CRH (human and mouse, C-terminal K-Biotin); test: ELISA, biotin peptide on streptavidin plate
T9 construct: also called N-Ter-CRH (CT-Bion)
T9 peptide: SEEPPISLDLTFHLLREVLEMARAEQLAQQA
Procedure, shortened: as §3

human UCN2 peptide [15] = target: T1, human UCN2 peptide; test: ELISA on streptavidin-captured hUCN2 (NT biotin) and hUCN2 (CT biotin), mAb at 100 nM and 10 nM; axis labelled RLU, scale 0-4
Experimental: as §1

[16] = target: T10, corticotropin-releasing hormone (CRH) peptide (human and mouse, not fully specified); test: cell-based or functional assay
T10 peptide: T4 peptide

B1: PR302341-55 (antibody, human IgG1, kappa, V domains shown)
VH: QVQLVQSGAEVKKPGASVKVSCKASGYTFTDYFMKWVRQAPGQRLEWMGVINPNNADIFYNQKFKGRVTITRDTSASTAYMELSSLRSEDTAVYYCARGTDRALFAYWGQGTLVTVSS
VL: DVVMTQSPLSLPVTLGQPASISCRSGQSIVHSDGNTYLEWYQQRPGQSPRLLIYKVSNRFSGVPDRFSGSGSGTDFTLKISRVEAEDLGVYYCFQGSHIPWTFGGGTKVEIKR
notes: Humanized, PTM-removed variant of PR302341
Human UCN2 peptide [1]
  binding result: no binding (tested: 100 nM)
Human UCN3 peptide [2]
  binding result: no binding (tested: 100 nM)
Human UCN1 peptide
  potency on hUCN1-induced against CRH-induced hCRHR1 reporter activity: 267 fold lower

B2: PR302050 (antibody, human IgG1, kappa, V domains shown)
VH: EMQLVESGGGLVQPGGSLKLSCAASGFTFSNYWMNWVRQASGKGLEWVAEIRLKSNNYATHYAESVKGRFTISRDDSKSTVYLQMNSLKTEDTAVYYCTVGTLVYWGQGTLVTVSS
VL: DIVLTQSPDSLAVSLGERATINCRASQSVSTSTYNYMHWFQQKPGQPPKLLIKFASNLESGVPDRFSGSGSGTDFTLTISSLQAEDTAVYYCQHSWEIPYTFGQGTKLEIKR
notes: Humanized variant of PR301777
Biotinylated CRH [3]
  Kd: < 0.001 nM
  koff: < 1e-07 s⁻¹
  kon: 470000 M⁻¹ s⁻¹
Biotinylated CRH [4]
  % Inhibition: 94%
Biotinylated CRH [5]
  % Inhibition: 95%
Biotinylated CRH [6]
  % Inhibition: 96%
Biotinylated CRH [7]
  % Inhibition: 94%
Biotinylated CRH [8]
  % Inhibition: 0%
Biotinylated CRH [9]
  % Inhibition: 94%
Biotinylated CRH [10]
  % Inhibition: 94%
Biotinylated CRH [11]
  % Inhibition: 95%
Biotinylated CRH [12]
  % Inhibition: 94%
Biotinylated CRH [13]
  % Inhibition: 94%

B3: PR302064 (antibody, human IgG1, kappa, V domains shown)
VH: B2 VH with Q13K, K19R, S41P
VL: B2 VL
notes: Humanized variant of PR301777
Biotinylated CRH [3]
  Kd: < 0.001 nM
Biotinylated CRH [4]
  % Inhibition: 94%
Human UCN3 peptide [14]
  binding result: no binding (tested: 100 nM)
hUCN1 (NT Biotin)
  EC50: 0.118 nM and 0.142 nM
CRH (CT Biotin)
  EC50: 0.026 nM and 0.023 nM
hUCN1 (CT Biotin)
  EC50: 0.208 nM and 0.256 nM
CRH (NT Biotin)
  EC50: 0.03 nM
N-Terminal CRH
  EC50: 0.022 nM
Biotinylated CRH [5]
  % Inhibition: 95%
Biotinylated CRH [6]
  % Inhibition: 94%
Biotinylated CRH [7]
  % Inhibition: 95%
Biotinylated CRH [8]
  % Inhibition: 1%
Biotinylated CRH [9]
  % Inhibition: 95%
Biotinylated CRH [10]
  % Inhibition: 95%
Biotinylated CRH [11]
  % Inhibition: 94%
Human UCN2 peptide [15]
  binding result: no binding (tested: 100 nM)
[16]
  CHO-CRE-hCRHR1 0.5 nM CRH IC50: 0.531 nM and 0.664 nM
Biotinylated CRH [12]
  % Inhibition: 94%
Biotinylated CRH [13]
  % Inhibition: 93%
